Test: soluble on expression in E. coli; label from the status in PepcDB or PDB records

Sequence	soluble on expression in E. coli
MGSDKIHHHHHHMSQLLIKNAYLITMNADREVYENGSILIENNIIKEVGKFDINIVDKDAEIYDAKGKILMPGLVNTHVHLSQQLGRGLADDVVLLTWLRERIWPYESSFNYEDSLISSTACCVELIKSGVTTFLESGGQYVDAMVEAVDKTGLRACLAKSVMDTGDGLPEAWQKTTDEEINTQLDLFHKFNNTSNERIKIWFALRTIFNTTEELLVRTKELADKYNTGIHMHIAEIADEISFVKQNNGVGTVEYLDKLGVLGPNLLAAHTVWLTHKEIDLFRLHDVKVSHDPGSAMKVVLGFASIPEMLEKGIPVSIGTDGAPSNNRMDLMRDMYLTSLIHKGRTLNPTVVPAEEVLEMATINGAKCALLEKEIGSLEVGKKADMIILNPDTIHCLPMHNPIGNIVYSMTSENVDSTICDGKWLMKERKVLVVDESELLNKVKKQASKIKDKAEVKIPSKFKIIK	not soluble
RSFAKDLEAKQKMSLTSWFLVSSGGTRHRLPREMIFVGRDDCELMLQSRSVDKQHAVINYDASTDEHLVKDLGSLNGTFVNDVRIPEQTYITLKLEDKLRFGYDTNLFTVVQGEMRVPEEALKHEKFTIQLQLSQKSSESELSKSASAKSIDSKVADAATEVQHKTTEALKSEEKAMDISAMPRGTPLYGQPSWWGDDEVDEKRAFKTNGKPEEKNHEAGTSGCSIDAKQVEEQSAAANEEVLFPFCREPSYFEIPTKEFQQPSQITESTIHEIPTKDTPSSHITGAGHASFTIEFDDSTPGKVTIRDHVTKFTSDQRHKSKKSSPGTQDLLGIQTGMMAPENKVADWLAQNNPPQMLWERTEEDSKSIKSDVPVYLKRLKGNKHDDGTQSDSENAGAHRRCSKRATLEEHLRRHHSEHKKLQKVQATEKHQDQAVVFGVDDNQDYNRPVINEKHKDLIKDWALSSAAAVMEERKPLTTSGFHHSEEGTSSSGSKRWVSQWASLAANHTRHDQEERIMEFSAPLPLENETEISESGMTVRSTGSATSLASQGERRRRTLPQLPNEEKSLESHRAKVVTQRSEIGEKQDTELQEKETPTQVYQKDKQDADRPLSKMNRAVNGETLKTGGDNKTLLHLGSSAPGKEKSETDKETSLVKQTLAKLQQQEQREEAQWTPTKLSSKNVSGQTDKCREETFKQESQPPEKNSGHSTSKGDRVAQSESKRRKAEEILKSQTPKGGDKKESSKSLVRQGSFTIEKPSPNIPIELIPHINKQTSSTPSSLALTSASRIRERSESLDPDSSMDTTLILKDTEAVMAFLEAKLREDNKTDEGPDTPSYNRDNSISPESDVDTASTISLVTGETERKSTQKRKSFTSLYKDRCSTGSPSKDVTKSSSSGAREKMEKKTKSRSTDVGSRADGRKFVQSSGRIRQPSVDLTDDDQTSSVPHSAISDIMSSDQETYSCKPHGRTPLTSADEHVHSKLEGSKVTKSKTSPVVSGSSSKSTTLPRPRPTRTSLLRRARLGEASDSELADADKASVASEVSTTSSTSKPPTGRRNISRIDLLAQPRRTRLGSLSARSDSEATISRSSASSRTAEAIIRSGARLVPSDKFSPRIRANSISRLSDSKVKSMTSAHGSASALKTTRLQSAGSAMPTSSSFKHRIKEQEDYIRDWTAHREEIARISQDLALIAREINDVAGEIDSVTSSGTAPSTTVSTAATTPGSAIDTREEVGDLHGEMHKLVDRVFDESLNFRKIPPLVHSKTPEGNNGRSGDPRPQAAEPPDHLTITRRRTWSRDEVMGDNLLLSSVFQFSKKIRQSIDKTAGKIRILFKDKDRNWDDIESKLRAESEVPIVKTSSMEISSILQELKRVEKQLQAINAMIDPDGTLEALNNMGFPSAMLPSPPKQKSSPVNNHHSPGQTPTLGQPEARALHPAAVSAAAEFENAESEADFSIHFNRFNPDGEEEDVTVQE	soluble
MGGFGVGKTTLVRSVSEIRPLNTEEVMTQAGVGVDETGGVTSKTTTTVAFDFGRISLNDRMVLYLFGAPGQERFWFLWDRLFSGTLGAVVLVDTRRMDDSWYAIDRLEHHRTPFVVAVNRFDDDTARHSLDEIRLALALPDHVPLIDCDARVRTSGKHVLVTLVDHLYQLALAQESASLEHHHHHH	not soluble
MAHHHHHHMRKIYIAGPAVFNPDMGASYYNKVRELLKKENVMPLIPTDNEATGALDIRQKNIQMIKDCDAVIADLSPFRGHEPDCGTAFEVGYAAALNKMVLTFTSDRRNMREKYGSEVDKDNLRVEGFGLPFNLMLYDGVEVFDSFESAFKYFLANFPSK	soluble
SQFVLQDLQDATLGSLLSSLMQHCDPPQRKYPLEKGTPPPWWPTGNEEWWVKLGLPKSQSPPYRKPHDLKKMWKVGVLTAVINHMLPDIAKIKRHVRQSKCLQDKMTAKESAIWLAVLNQEESLIQQ	soluble
MGSDKIHHHHHHMRNIVKRFGSLVANDHINFEVKRGEIHGLLGENGAGKTTLMNILYGIYQPDEGEIIFEGKKVRFKSPKDAISAGIGMVHQHFMLVPRMNVLQNIVLGYRTPSDPLINHRWVEERIERLSEKYGIDVALYEVIMNLSVGEEQRVEILKALFRDVKLLILDEPTAVLTPQEVDSLFYALKSMTKSGLTIIFITHKLKEALKVTDRITVLRRGRKVGTVITSETNERELTRMMVGRDIVLDITKPPSTPGREVLRVEDLWVRDERGNYAVKGVSFSIREGEIFGIAGVSGNGQKELEEAIAGLRKVERGRIILDGKDITAKGVAEREDIAYIPEDRIGVGLAPSLSVLENLMLKDFKKYKKRFSLNFEEMEKRAMSLVEEFSVKTPSLHSPAGTLSGGNIQRLILARELSRNPRLIIASQPTRGLDVAGIDYVRRRLIEAAMRGSAVLLISEDLDEIFQLSDRIGVMYEGEIRGIVDRKNANYEKIGYLMAGGLEVAA	not soluble
MRVTDFSFELPESLIAHYPQPERSRCRLLSLEGPTGALTHGTFTDLLDKLNPGDLLVFNNTRVIPARLFGRKASGGKIEVLVERMLDDKRILAHIRASKAPKPGTELLLGDDESIHATMTARHGALFEVEFNDPRPVLDILNAIGHMPLPPYIDRPDEDADRELYQTVYSEKPGAVAAPTAGLHFDEPLLAALREKGVEMAFVTLHVGAGTFQPVRVDTIEDHIMHSEYAEVPQEVVDAVLAAKARGNRVIAVGTTSVRSLESAAQAAKSDLIEPFFGDTQIFIYPGYQYKVIDALITNFHLPESTLIMLVSAFAGYQHTMNAYKTAVEQKYRFFSYGDAMFITYNPQAISERP	not soluble
MRHFDASQPLRVAVLGTGFGSKVHIPALQHHSETTVQAVYHRQPDRAAAIAVQFGIPNAYSDLDQLLADPAIEAVTIASPPFLHYPMAWAALSAGKSVLLEKPTTLNVEEARALWKLASSQGLTVTLDFEYRFVPAWQYVAELLAEGVIGQPWLVKLDWLMSSRADASRPWNWYALRSQGGGALGALGSHSFDYLAWLFGPARRLQARLFTAIQERPDATTGELKPVDSDDTDLIQLELAEGVPCQISLSSVFRQGRGHWLEVYGDRGTLILGSSNQKDYVHGFQVWFASAGQALQELTVPQRLAFRQEFADGRLAPFLRVVDHWLADLRHGQMTAPSLKEGLYSQLLIDLCWQSQRSGEWQTVPELNRFLLEHHHHHH	not soluble
MGSDKIHHHHHHMSIDNVSGTSSNTGNVNGSKRAAGSGATETGQSVKGSSNLGKDEFLKLLVAQLKNQDPMSPQQNGEFIAQLAQFSTVEGVQSLNKSMESILSNYQSSQALQASSLVGRKVIVATDKSVVDTKDTFKASLNLPVSSSNVWVNVYDDKGTVVNRINLGQQAAGSVSFMWDGKDSSGNIMPPGTYKFEAQTSIDGKTYGLQTYLPANVDSVTLGQNGGELMLNLAGLGSIALSKVQIIGQ	not soluble
MGSDKIHHHHHHMTYYESGLLRARWASWQDARAGRTAQANARWGWIKAPGERGPILWMQSFSDADQQRLGIELAKAMAEKRRDLRMVMTFETEYPALLEQHTEGAERLGYGFGPCDHPQAVGRMLERLTPLRYLALGRAPRPRLAAALGRRKIPAVLMAADPGLQIPAPLEAVYPRDARQAGAWAGRGVTEAVQEPVDFATLFTIAQVDPNFRAMISGTDEGLLWWAQGLSAAQWAGWRRAWAASPLSRHGLLFLGGTGAPTDLPRLSAWQRAPLPAGAVVVADDDRWYPALSAGAQAVHLQKASPMLQWQVYAGSRPISVSPGVTLNAAEPLDADTILTLEEPAQILDHWQALRGDAMAARQRGDATRRIFWQERRHAGERLPEFLQRVFDW	not soluble
